Assay results: paper PMC5615192 (mBio, 2017)

Target: MAb A12A3 (mouse)
Assay: SPR; Biacore 3000; MAb (10 ug/ml) captured on a CM-5 chip amine coupled with goat anti-mouse Fc fragment; serially diluted pentamer injected at 30 ul/min for 3.3 min; HBS (10 mM HEPES pH 7.4, 150 mM NaCl); three measurements, mean and standard deviation

Sequence of MAb A12A3 (mouse) (heavy, as listed by the source, chain 1 of 2): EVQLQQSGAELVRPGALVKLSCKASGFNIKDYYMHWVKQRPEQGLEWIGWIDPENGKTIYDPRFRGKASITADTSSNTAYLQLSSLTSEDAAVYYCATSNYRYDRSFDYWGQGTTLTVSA
Sequence of MAb A12A3 (mouse) (light, as listed by the source, chain 2 of 2): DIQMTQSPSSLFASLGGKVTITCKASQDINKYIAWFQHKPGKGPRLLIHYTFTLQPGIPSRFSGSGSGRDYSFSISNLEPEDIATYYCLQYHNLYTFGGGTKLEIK

Binder	Ka [M⁻¹]	Kd [nM]	koff [s⁻¹]	kon [M⁻¹ s⁻¹]
HPV58 L1 pentamer R161A (natural protein) EATVYLPPVPVSKVVSTDEYVSRTSIYYYAGSSRLLAVGNPYFSIKSPNNNKKVLVPKVSGLQYRVFRVRLPDPNKFGFPDTSFYNPDTQRLVWACVGLEIGRGQPLGVGVSGHPYLNKFDDTETSNAYPAQPGSDNRECLSMDYKQTQLCLIGCKPPTGEHWGKGVACNNNAAATDCPPLELFNSIIEDGDMVDTGFGCMDFGTLQANKSDVPIDICNSTCKYPDYLKMASEPYGDSLFFFLRREQMFVRHFFNRAGKLGEAVPDDLYIKGSGNTAVIQSSAFFPTPSGSIVTSESQLFNKPYWLQRAQGHNNGICWGNQLFVTVVDTTRSTNMTLCTEVTKEGTYKNDNFKEYVRHVEEYDLQFVFQLCKITLTAEIMTYIHTMDSNILEDWQFGLTPPPSASLQDTYRFVTSQAITCQKTAPPKEKEDPLNKYTFWEVNLKEKFSADLDQFPLGRKFLLQSGLKAKPRLKRSAPTTRAPSTKRKKVKK	994000	1120	9.98e-06	10.1
HPV58 L1 pentamer S168A (natural protein) EATVYLPPVPVSKVVSTDEYVSRTSIYYYAGSSRLLAVGNPYFSIKSPNNNKKVLVPKVSGLQYRVFRVRLPDPNKFGFPDTSFYNPDTQRLVWACVGLEIGRGQPLGVGVSGHPYLNKFDDTETSNRYPAQPGADNRECLSMDYKQTQLCLIGCKPPTGEHWGKGVACNNNAAATDCPPLELFNSIIEDGDMVDTGFGCMDFGTLQANKSDVPIDICNSTCKYPDYLKMASEPYGDSLFFFLRREQMFVRHFFNRAGKLGEAVPDDLYIKGSGNTAVIQSSAFFPTPSGSIVTSESQLFNKPYWLQRAQGHNNGICWGNQLFVTVVDTTRSTNMTLCTEVTKEGTYKNDNFKEYVRHVEEYDLQFVFQLCKITLTAEIMTYIHTMDSNILEDWQFGLTPPPSASLQDTYRFVTSQAITCQKTAPPKEKEDPLNKYTFWEVNLKEKFSADLDQFPLGRKFLLQSGLKAKPRLKRSAPTTRAPSTKRKKVKK	1.62e+08	6.28	0.000522	54300
HPV58 L1 pentamer D154A (natural protein) EATVYLPPVPVSKVVSTDEYVSRTSIYYYAGSSRLLAVGNPYFSIKSPNNNKKVLVPKVSGLQYRVFRVRLPDPNKFGFPDTSFYNPDTQRLVWACVGLEIGRGQPLGVGVSGHPYLNKFADTETSNRYPAQPGSDNRECLSMDYKQTQLCLIGCKPPTGEHWGKGVACNNNAAATDCPPLELFNSIIEDGDMVDTGFGCMDFGTLQANKSDVPIDICNSTCKYPDYLKMASEPYGDSLFFFLRREQMFVRHFFNRAGKLGEAVPDDLYIKGSGNTAVIQSSAFFPTPSGSIVTSESQLFNKPYWLQRAQGHNNGICWGNQLFVTVVDTTRSTNMTLCTEVTKEGTYKNDNFKEYVRHVEEYDLQFVFQLCKITLTAEIMTYIHTMDSNILEDWQFGLTPPPSASLQDTYRFVTSQAITCQKTAPPKEKEDPLNKYTFWEVNLKEKFSADLDQFPLGRKFLLQSGLKAKPRLKRSAPTTRAPSTKRKKVKK	4.18e+06	240	0.102	426000
HPV58 L1 pentamer N170A (natural protein) EATVYLPPVPVSKVVSTDEYVSRTSIYYYAGSSRLLAVGNPYFSIKSPNNNKKVLVPKVSGLQYRVFRVRLPDPNKFGFPDTSFYNPDTQRLVWACVGLEIGRGQPLGVGVSGHPYLNKFDDTETSNRYPAQPGSDARECLSMDYKQTQLCLIGCKPPTGEHWGKGVACNNNAAATDCPPLELFNSIIEDGDMVDTGFGCMDFGTLQANKSDVPIDICNSTCKYPDYLKMASEPYGDSLFFFLRREQMFVRHFFNRAGKLGEAVPDDLYIKGSGNTAVIQSSAFFPTPSGSIVTSESQLFNKPYWLQRAQGHNNGICWGNQLFVTVVDTTRSTNMTLCTEVTKEGTYKNDNFKEYVRHVEEYDLQFVFQLCKITLTAEIMTYIHTMDSNILEDWQFGLTPPPSASLQDTYRFVTSQAITCQKTAPPKEKEDPLNKYTFWEVNLKEKFSADLDQFPLGRKFLLQSGLKAKPRLKRSAPTTRAPSTKRKKVKK	1.53e+08	6.52	0.000644	98400
HPV58 L1 pentamer Q165A (natural protein) EATVYLPPVPVSKVVSTDEYVSRTSIYYYAGSSRLLAVGNPYFSIKSPNNNKKVLVPKVSGLQYRVFRVRLPDPNKFGFPDTSFYNPDTQRLVWACVGLEIGRGQPLGVGVSGHPYLNKFDDTETSNRYPAAPGSDNRECLSMDYKQTQLCLIGCKPPTGEHWGKGVACNNNAAATDCPPLELFNSIIEDGDMVDTGFGCMDFGTLQANKSDVPIDICNSTCKYPDYLKMASEPYGDSLFFFLRREQMFVRHFFNRAGKLGEAVPDDLYIKGSGNTAVIQSSAFFPTPSGSIVTSESQLFNKPYWLQRAQGHNNGICWGNQLFVTVVDTTRSTNMTLCTEVTKEGTYKNDNFKEYVRHVEEYDLQFVFQLCKITLTAEIMTYIHTMDSNILEDWQFGLTPPPSASLQDTYRFVTSQAITCQKTAPPKEKEDPLNKYTFWEVNLKEKFSADLDQFPLGRKFLLQSGLKAKPRLKRSAPTTRAPSTKRKKVKK	7.28e+07	13.8	0.00228	167000
HPV58 L1 pentamer N308A (natural protein) EATVYLPPVPVSKVVSTDEYVSRTSIYYYAGSSRLLAVGNPYFSIKSPNNNKKVLVPKVSGLQYRVFRVRLPDPNKFGFPDTSFYNPDTQRLVWACVGLEIGRGQPLGVGVSGHPYLNKFDDTETSNRYPAQPGSDNRECLSMDYKQTQLCLIGCKPPTGEHWGKGVACNNNAAATDCPPLELFNSIIEDGDMVDTGFGCMDFGTLQANKSDVPIDICNSTCKYPDYLKMASEPYGDSLFFFLRREQMFVRHFFNRAGKLGEAVPDDLYIKGSGATAVIQSSAFFPTPSGSIVTSESQLFNKPYWLQRAQGHNNGICWGNQLFVTVVDTTRSTNMTLCTEVTKEGTYKNDNFKEYVRHVEEYDLQFVFQLCKITLTAEIMTYIHTMDSNILEDWQFGLTPPPSASLQDTYRFVTSQAITCQKTAPPKEKEDPLNKYTFWEVNLKEKFSADLDQFPLGRKFLLQSGLKAKPRLKRSAPTTRAPSTKRKKVKK	8.99e+06	112	0.0272	243000
